The subject of test [1] is N2a cells. Nature of the test: MTT assay of N2a cell growth / vitality. It counts as cell-based, murine. Conditions: 5 days; for N2a cellular vitality by MTT assay at DIV5: N2a cells 2 × 10^3 cells/cm^2, 3 μM daily, normalized to vehicle (Lorlatinib) or GFP (rNegr1, PepA-1), n = 10; for N2a cellular growth by MTT assay at DIV5: naive N2a cells seeded at 2 × 10^3 cells/cm^2, 100 ng/mL daily, vs. GFP control, n = 10-12. Here is the method: N2a (Neuro2a, ATCC CCL-131), HEK293 (ATCC CRL-1573), U87 MG (ATCC® HTB14), SKMEL5 (ATCC® HTB70), MCF7 ATCC® HTB-22, A549 ATCC® CCL-185, and SHSY5Y (ATCC® CRL 2266™) cells were grown in DMEM high glucose (Gibco, Thermo Fisher Scientific, Waltham, MA, USA) with 10% FBS, 1% penicillin/streptomycin, and 1% glutamine in a humidified atmosphere of 5% CO2 at 37 °C. In the soft-agar assays, we added 0.6% soft agar (Gibco, Thermo Fisher Scientific, Waltham, MA, USA) in media to 2 × 10^3 cell/cm^2 N2a cells to obtain a final concentration of 0.4% agar. We cultured the cells onto a 0.6% soft agar layer. N2a and HEK293 cells were transfected with the different constructs for 48 h using Lipofectamine 2000 (Invitrogen, Thermo Fisher Scientific Waltham, MA, USA). Stable N2a clones expressing murine Negr1 were isolated upon Neomycin selection (1 μg/mL).
We performed the 3-(4,5-dimethylthiazol-2-yl)-2,5-diphenyltetrazolium bromide (MTT) assay to appreciate culture vitality. We cultured N2a cells in a 96-well plate at a concentration of 2 × 10^3 cells/cm^2. The treatment condition is indicated in the Results Section 3. At the end of the treatment, we added the MTT solution to the cell medium at a final concentration of 0.25 mg/mL. The incubation lasted 30 min at 37 °C. Next, we removed the medium and collected the formazan precipitates in DMSO (200 μL). We measured the absorbance at 570 nm using a spectrophotometer (Varioskan LUX, Thermofisher, Waltham, MA, USA) as a proxy for cell viability. We expressed relative cell viability fold over the control condition.

A further test relates to N-MYC. Briefly: Western blotting of N-MYC protein level in treated N2a cells. As to conditions: n = 6; for N-MYC protein level (Western blotting), chronic treatment: 100 ng/mL daily for five days. In kind it is cell-based, murine. Here is the method:
(§1) We assessed protein level and relative phosphorylation by Western blotting as in [31]. Briefly, upon a wash in PBS, we solubilized cells and tumor specimens in lysis buffer (150 mM NaCl, 50 mM HEPES, 0.5% NP40, 1% sodium-deoxycholate). After 1 h under mild agitation, we clarified the lysate by centrifugation for 20 min at 16,000× g. We performed all experimental procedures at 4 °C. We evaluated protein concentrations via Bradford assay (Bio-Rad, Hercules, CA, USA). For Western blotting experiments, we diluted an equal amount of proteins with 0.25% 5× Laemmli buffer. We separated the samples on 10% SDS-PAGE gels and transferred them onto a nitrocellulose membrane (Sigma-Aldrich) at 80 V for 120 min at 4 °C. Primary antibodies were:
Beta-actin (Santa Cruz Biotechnology, Dallas, TX, USA, sc-47778), ALK (Santa Cruz Biotechnology, Dallas, TX, USA, sc-398791), N-myc (Santa Cruz Biotechnology, Dallas, TX, USA, sc-56729), p44/42 MAPK (Erk1/2) (137F5) Rabbit mAb (Cell Signaling Technology, Danvers, MA, USA), Akt (pan) (11E7) Rabbit mAb (Cell Signaling Technology, Danvers, MA, USA), Phospho-Akt (Ser473) (D9E) XP® Rabbit mAb (Cell Signaling Technology, Danvers, MA, USA), S6 Ribosomal Protein (5G10) Rabbit mAb (Cell Signaling Technology, Danvers, MA, USA), and Negr1 (AF5394) Goat polyclonal (R&D system, Minneapolis, MN, USA). Antibodies were applied overnight in blocking buffer (20 mM Tris, pH 7.4, 150 mM NaCl, 0.1% Tween 20, and 5% nonfat dry milk). We detected proteins using the ECL prime detection system (GE Healthcare, Chicago, IL, USA) with the imaging ChemiDoc Touch system (Bio Rad, Hercules, CA, USA). We quantified the optical density of the specific bands with ImageLab 3.0 software (Bio Rad, Hercules, CA, USA).
For orientation: In western blotting, separated proteins are transferred to a membrane and probed.

Another test has as its target T1, ALK (Mus musculus, UniProt P97793).
T1 construct: we evaluated ALK and N-MYC protein expression by Western blotting; endogenous in cells; host or cells: N2a (Neuro2a, ATCC CCL-131)
Briefly: Western blotting of ALK protein level in treated N2a cells. In kind it is cell-based, murine. Conditions: n = 6; for ALK protein level (Western blotting), chronic treatment: 2 × 10^3 cells/cm^2 N2a cells, 100 ng/mL daily for five days, fold over GFP. As for the experimental part: as §1
Antibodies were applied overnight in blocking buffer (20 mM Tris, pH 7.4, 150 mM NaCl, 0.1% Tween 20, and 5% nonfat dry milk). We detected proteins using the ECL prime detection system (GE Healthcare, Chicago, IL, USA) with the imaging ChemiDoc Touch system (Bio Rad, Hercules, CA, USA). We quantified the optical density of the specific bands with ImageLab 3.0 software (Bio Rad, Hercules, CA, USA).

Test [2] relates to N2a cells. Briefly: Growth of subcutaneous N2a tumors in nude mice. In kind it is in vivo. Conditions: 1 million N2a cells s.c. in CD1 nude mice; 2 ug in situ every second day from 100 mm^3 tumor volume; vs. GFP; n = 9 (PepA), n = 5 (PepA-1). From the text:
All procedures involving animals were approved by Institutional and National Agencies (authorization 559/2016-PR).

The next test concerns ALK mRNA. Nature of the test: RT-qPCR of ALK mRNA level in treated N2a cells. In kind it is cell-based, murine. As to conditions: 5 × 10^3 cells/cm^2 N2a cells, 100 ng/mL, 10 min to 6 h; normalized over housekeeping genes; n = 6. An excerpt: (§2) Total RNA was isolated from cell cultures using a Single Cell RNA Purification Kit (Norgen Thorold, ON, Canada) according to manufacturer’s instruction. After extraction, the RNA concentration was quantified with a NanoDrop 2000C spectrophotometer (Thermo Fisher Scientific, Waltham, MA, USA). After DNAse treatment (Thermo Fisher Scientific, Waltham, MA, USA, according to manufacturer’s protocol), complementary DNA (cDNA) was generated using qRT SuperMix (Bimake). The cDNAs were used for quantitative PCR (qPCR) using iTaq Universal SYBR® Green Supermix and CFX96 RealTime System (BioRad, Hercules, CA, USA) for 40 cycles. We used two independent couples of primers to assess mRNA expression levels (Table 3). All samples were measured as technical duplicates. We calculated mRNA expression levels as the average between the two couple of primers, normalized for the mathematical mean of the relative abundance of actinB and GAPDH (housekeeping genes). Data shown were produced using Bio-Rad CFX Manager 3.1 software and analyzed according to the ddCt method.

The test system of a further test is N-MYC mRNA. Nature of the test: RT-qPCR of N-MYC mRNA level in treated N2a cells. It counts as cell-based, murine. Conditions: 5 × 10^3 cells/cm^2 N2a cells, 100 ng/mL, 10 min to 6 h; normalized over housekeeping genes; n = 6.
From the text: as §2

Setting [3] is: 2 × 10^3 cells/cm^2 N2a cells, fold over GFP.
The mark [4] stands for this setting: 5 × 10^3 cells/cm^2 N2a cells, 100 ng/mL, 10 min to 6 h, normalized over actin, vs. GFP.

“Also recorded” adds a separate entry of the source.

T1 sequence (P97793 19-1621): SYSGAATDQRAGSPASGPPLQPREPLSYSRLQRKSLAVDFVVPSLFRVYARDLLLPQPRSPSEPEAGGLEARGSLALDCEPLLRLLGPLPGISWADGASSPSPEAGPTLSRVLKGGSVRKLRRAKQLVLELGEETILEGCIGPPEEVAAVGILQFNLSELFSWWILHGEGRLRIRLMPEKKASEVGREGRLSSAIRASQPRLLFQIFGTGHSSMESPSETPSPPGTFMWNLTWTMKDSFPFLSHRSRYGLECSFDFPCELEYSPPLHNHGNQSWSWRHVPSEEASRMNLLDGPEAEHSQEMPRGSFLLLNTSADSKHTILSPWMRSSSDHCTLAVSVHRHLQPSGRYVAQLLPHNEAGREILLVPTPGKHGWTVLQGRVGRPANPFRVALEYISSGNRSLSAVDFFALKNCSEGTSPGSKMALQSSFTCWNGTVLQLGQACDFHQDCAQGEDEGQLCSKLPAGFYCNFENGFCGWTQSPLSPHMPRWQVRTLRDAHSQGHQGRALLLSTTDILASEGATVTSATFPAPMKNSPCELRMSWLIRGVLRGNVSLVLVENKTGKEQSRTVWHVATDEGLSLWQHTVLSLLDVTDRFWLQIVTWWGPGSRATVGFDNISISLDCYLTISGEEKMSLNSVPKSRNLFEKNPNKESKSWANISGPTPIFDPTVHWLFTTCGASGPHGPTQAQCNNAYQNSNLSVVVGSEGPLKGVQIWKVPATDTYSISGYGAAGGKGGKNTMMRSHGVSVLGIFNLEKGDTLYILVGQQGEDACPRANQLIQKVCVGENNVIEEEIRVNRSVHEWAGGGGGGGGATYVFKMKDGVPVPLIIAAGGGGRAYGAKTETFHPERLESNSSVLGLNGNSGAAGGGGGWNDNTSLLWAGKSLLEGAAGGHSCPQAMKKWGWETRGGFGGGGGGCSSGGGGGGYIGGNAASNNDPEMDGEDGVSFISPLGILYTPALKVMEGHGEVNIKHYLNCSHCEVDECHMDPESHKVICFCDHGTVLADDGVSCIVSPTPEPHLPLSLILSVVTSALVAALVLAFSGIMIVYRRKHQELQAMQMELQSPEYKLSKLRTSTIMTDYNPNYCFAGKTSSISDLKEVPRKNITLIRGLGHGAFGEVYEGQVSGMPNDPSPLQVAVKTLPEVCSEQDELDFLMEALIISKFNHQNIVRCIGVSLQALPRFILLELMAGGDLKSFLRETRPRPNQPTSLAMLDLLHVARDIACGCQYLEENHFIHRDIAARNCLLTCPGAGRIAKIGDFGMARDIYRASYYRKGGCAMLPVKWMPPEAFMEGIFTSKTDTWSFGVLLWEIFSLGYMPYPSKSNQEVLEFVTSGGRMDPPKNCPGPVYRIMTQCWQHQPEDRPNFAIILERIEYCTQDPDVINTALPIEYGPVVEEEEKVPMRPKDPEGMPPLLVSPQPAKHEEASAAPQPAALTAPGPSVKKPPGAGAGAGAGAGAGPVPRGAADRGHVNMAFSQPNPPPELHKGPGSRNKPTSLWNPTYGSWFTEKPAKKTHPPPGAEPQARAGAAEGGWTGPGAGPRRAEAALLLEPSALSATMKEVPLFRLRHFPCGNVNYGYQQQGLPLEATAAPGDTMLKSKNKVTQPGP

Take `C[C@H]1Oc2cc(cnc2N)-c2c(nn(C)c2C#N)CN(C)C(=O)c2ccc(F)cc21` [Lorlatinib, reference compound]: in the test on N2a cells [1], the “N2a cellular vitality by MTT assay at DIV5” value was “impaired N2A growth to a similar extent”. The “N-MYC protein level (Western blotting), chronic treatment at 3 μM” value in the test on N-MYC (2 × 10^3 cells/cm^2 N2a cells, 3 μM daily for five days, fold over GFP) was “strongly reduced”.
As to “VDFPWAAVDNMLVRKGDTAVLRCYLEDGASKGAWLNRSSIIFAGGDKWSVDPRVSISTLNKRDYSLQIQNVDVTDDGPYTCSVQTQHTPRTMQVHL [PepA, Negr1 first Ig domain, strep-FLAG tagged recombinant protein purified from HEK293 cells]”, the “ALK protein level (Western blotting), chronic treatment” value on ALK was “robust reduction”. Also, the “Tumor growth (tumor volume, fold over day 1)” value in the test with N2a cells [2] is recorded as “robust growth reduction”. Also, the “N2a cellular growth by MTT assay at DIV5” value in the test with N2a cells [1] is given as “significantly reduced N2a proliferation”. Besides, the “N-MYC protein level (Western blotting), chronic treatment” value in the test on N-MYC (setting [3]) is “robust reduction”.

B1: rNegr1: Recombinant Strep-FLAG Negr1 (murine) expressed in and purified from HEK293 cells (protein, UniProt Q80Z24 32-318, looked up)
Neuronal growth regulator 1: VDFPWAAVDNMLVRKGDTAVLRCYLEDGASKGAWLNRSSIIFAGGDKWSVDPRVSISTLNKRDYSLQIQNVDVTDDGPYTCSVQTQHTPRTMQVHLTVQVPPKIYDISNDMTINEGTNVTLTCLATGKPEPVISWRHISPSAKPFENGQYLDIYGITRDQAGEYECSAENDVSFPDVKKVRVIVNFAPTIQEIKSGTVTPGRSGLIRCEGAGVPPPAFEWYKGEKRLFNGQQGIIIQNFSTRSILTVTNVTQEHFGNYTCVAANKLGTTNASLPLNPPSTAQYGITG
modifications: Strep-FLAG tag
notes: Recombinant Strep-FLAG Negr1 (murine) expressed in and purified from HEK293 cells
Regarding B1, the “ALK protein level (Western blotting), chronic treatment” value with ALK is given as “did not overtly affect”. Also, the “ALK protein level (Western blotting), acute treatment” value in the test with ALK (setting [4]) was “reduction”. Also, in the test on ALK mRNA, the “ALK mRNA level (RT-qPCR)” value was “did not notice an overt impact”. In the test on N2a cells [1], the “N2a cellular vitality by MTT assay at DIV5” value is “impaired N2A growth to a similar extent” and the “N2a cellular growth by MTT assay at DIV5” value is on record as “significantly reduced N2a growth; also recorded: significantly reduced N2a proliferation”. For the same molecule, the “N-MYC protein level (Western blotting), chronic treatment” value in the test with N-MYC (setting [3]) is given as “did not overtly affect”. In addition, in the test with N-MYC (setting [4]), the “N-MYC protein level (Western blotting), acute treatment” value is recorded as “reduction”. In the test with N-MYC mRNA, the “N-MYC mRNA level (RT-qPCR)” value is “light but significant effect”.

These data come from article PMC10536585, “Negr1-Derived Peptides Trigger ALK Degradation and Halt Neuroblastoma Progression In Vitro and In Vivo” (Pharmaceutics, 2023).
